Molecular target: GST-fused core106 (HCV core, residues 1-106) (hepatitis C virus (genotype not stated))
Experiment: AlphaScreen or HTRF; GST-core106 and Flag-core106 at 150 nM each; glutathione donor beads and anti-Flag acceptor beads 20 ug/ml; room temperature; protein buffer 100 mM HEPES pH 7.5, 1 mM EDTA, 5 mM DTT, 0.1% CHAPS, 10% glycerol; untagged core106 added as reference inhibitor

HCV core106 (1-106 residues), untagged core106 domain (domain or fragment)
percent inhibition of core dimerization: 91%
